Test results: FireProtDB (doi:10.1021/bi00200a042)

settings: Saccharomyces cerevisiae (strain ATCC 204508 / S288c); pH 7; 25 °C; GdnHCl; Fluorescence; Potassium phosphate 0.1 M; reversible: yes; structure 1YCC

Chain of Cytochrome c isoform 1 C108A, P00044 (P00044 whole entry C108A, canonical isoform): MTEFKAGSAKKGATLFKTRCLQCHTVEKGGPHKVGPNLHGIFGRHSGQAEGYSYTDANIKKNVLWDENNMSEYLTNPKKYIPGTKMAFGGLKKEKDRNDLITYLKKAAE
Chain of Cytochrome c isoform 1 R44A|N58I|F88S|C108A, P00044 R44A N58I F88S C108A (P00044 whole entry R44A/N58I/F88S/C108A, canonical isoform): as the sequence (P00044 whole entry C108A, canonical isoform) above, with R44A, N58I, F88S counted along it
Chain of Cytochrome c isoform 1 N58I|F88S|C108A, P00044 N58I F88S C108A (P00044 whole entry N58I/F88S/C108A, canonical isoform): as the sequence (P00044 whole entry C108A, canonical isoform) above, with N58I, F88S counted along it
Chain of Cytochrome c isoform 1 N58I|C108A, P00044 N58I C108A (P00044 whole entry N58I/C108A, canonical isoform): as the sequence (P00044 whole entry C108A, canonical isoform) above, with N58I counted along it
Chain of Cytochrome c isoform 1 R44A|C108A, P00044 R44A C108A (P00044 whole entry R44A/C108A, canonical isoform): as the sequence (P00044 whole entry C108A, canonical isoform) above, with R44A counted along it
Chain of Cytochrome c isoform 1 R44A|N58I|C108A, P00044 R44A N58I C108A (P00044 whole entry R44A/N58I/C108A, canonical isoform): as the sequence (P00044 whole entry C108A, canonical isoform) above, with R44A, N58I counted along it
Chain of Cytochrome c isoform 1 F88S|C108A, P00044 F88S C108A (P00044 whole entry F88S/C108A, canonical isoform): as the sequence (P00044 whole entry C108A, canonical isoform) above, with F88S counted along it

Substance	denaturant m value	denaturant midpoint (higher = more stable)	unfolding free energy
Cytochrome c isoform 1 C108A, P00044	3.9 kcal/mol/M	1.3 M	5 kcal/mol
Cytochrome c isoform 1 R44A|C108A, P00044 R44A C108A	3 kcal/mol/M	1.4 M	3.8 kcal/mol
Cytochrome c isoform 1 N58I|F88S|C108A, P00044 N58I F88S C108A	3.2 kcal/mol/M	1.7 M	5.5 kcal/mol
Cytochrome c isoform 1 N58I|C108A, P00044 N58I C108A	4.2 kcal/mol/M	2.1 M	9 kcal/mol
Cytochrome c isoform 1 R44A|N58I|C108A, P00044 R44A N58I C108A	3.8 kcal/mol/M	2.1 M	8.2 kcal/mol
Cytochrome c isoform 1 R44A|N58I|F88S|C108A, P00044 R44A N58I F88S C108A	3.6 kcal/mol/M	1.7 M	6.2 kcal/mol
Cytochrome c isoform 1 F88S|C108A, P00044 F88S C108A	3.8 kcal/mol/M	0.9 M	3.5 kcal/mol
